For 9 variants, response results are on record in article PMC6778195.

The labels stand for the following.
B1: unnamed (parent)
chain 1: PCVVGGQADTIYPAIANQMAHQMHEDAQTEASKRGLAKLRADAKQGIYKKNRKPQELSNICNITLQHSNDSRNGNNGGACTGKDGNNERFKIGTEWKIGEKVETTDTDAYIPPRRQHMCTSNLENLNVSWVTEDGKAIHSLLGDVQLAAKMDADEIIKRYKKHNTLTDPIQQKDQESICRAVRYSFADLGDIIRGRDLWEHGDQTKLQGHLQIIFGKIKEEIKKKHPGINGNDKYKGDEKNNPPYKQLREDWWEANRHQVWRAMQCELKNLKKSNGDCHYNSRGTPLDDYIPQRLRWMVEWAEWFCKMQSQEYDKLMKQCSQCMSKGGDCRKGDVNCTSCEQACEEYKKKIKKWEKQWNKIKDKYEELYLQAKIAFAGTSFGGGDRDYQQMVHFFKELQKVTGDTTLGDTTSPYSTAAGYIHQEGHVDECTEQTQFCKNRNGNTASGKEDDNYTFKDPPPKYANACKCD
chain 2: QTSVSPSKVILPRGGSVLVTCSTSCDQPKLLGIETPLPKKELLLPGNNRKVYELSNVQEDSQPMCYSNCPDGQSTAKTFLTVYWTPERVELAPLPSWQPVGKNLTLRCQVEGGAPRANLTVVLLRGEKELKREPAVGEPAEVTTTVLVRRDHHGANFSCRTELDLRPQGLELFENTSAPYQLQTFVLPATPPQLVSPRVLEVDTQGTVVCSLDGLFPVSEAQVHLALGDQRLNPTVTYGNDSFSAKASVSVTAEDEGTQRLTCAVILGNQSQETLQTVTIYSFPAPNVILTKPEVSEGTEVTVKCEAHPRAKVTLNGVPAQPLGPRAQLLLKATPEDNGRSFSCSATLEVAGQLIHKNQTRELRVLYGPRLDERDCPGNWTWPENSQQTPMCQAWGNPLPELKCLKDGTFPLPIGESVTVTRDLEGTYLCRARSTQGEVTRKVTVNVLSPRYE

In the experiment the parent is B1. Kind of experiment: SPR. The settings on record: with partner chain of the complex shown; top curve of the dilution series (250 nM), read at end of injection (~250 s); parent: 260; read off a plot.
Turning to chain 1 PCVVGGQADTIYPAIANQMAHQMHEDAQTEASKRGLAKLRADAKQGIYKKNRKPQELSNICNITLQHSNDSRNGNNGGACTGKDGNNERFKIGTEWKIGEKVETTDTDAYIPPRRQHMCTSNLENLNVSWVTEDGKAIHSLLGDVQLAAKMDADEIIKRYKKHNTLTDPIQQKDQESICRAVRYSFADLGDIIRGRDLWEHGDQTKLQGHLQIIFGKIKEEIKKKHPGINGNDKYKGDEKANPPYKQLREDWWEANRHQVWRAMQCELKNLKKSNGDCHYNSRGTPLDDYIPQRLRWMVEWAEWFCKMQSQEYDKLMKQCSQCMSKGGDCRKGDVNCTSCEQACEEYKKKIKKWEKQWNKIKDKYEELYLQAKIAFAGTSFGGGDRDYQQMVHFFKELQKVTGDTTLGDTTSPYSTAAGYIHQEGHVDECTEQTQFCKNRNGNTASGKEDDNYTFKDPPPKYANACKCD [chain 1 N241A], the response came out at 280 RU.

Take chain 1 PCVVGGQADTIYPAIANQMAHQMHEDAQTEASKRGLAKLRADAKQGIYKKNRKPQELSNICNITLQHSNDSRNGNNGGACTGKDGNNERFKIGTEWKIGEKVETTDTDAYIPPRRQHMCTSNLENLNVSWVTEDGKAIHSLLGDVQLAAKMDADEIIKRYKKHNTLTDPIQQKDQESICRAVRYSFADLGDIIRGRDLWEHGDQTKLQGHLQIIFGKIKEEIKKKHPGINGNDKYKGDEKNNPPYKQLREDWWEANRHQVWRAMQCELKNLKKSNGDCHYNSRGTPLDDYIPQRLRWMVEWAEWFCKMQSQEYDKLMKQCSQCMSKGGDCRKGDVNCTSCEQACEEYKKKIKKWEKQWNKIKDKYEELYLQAKIAFAGTSFGAGDRDYQQMVHFFKELQKVTGDTTLGDTTSPYSTAAGYIHQEGHVDECTEQTQFCKNRNGNTASGKEDDNYTFKDPPPKYANACKCD [chain 1 G383A]: the response came out at 270 RU.

Consider chain 1 PCVVGGQADTIYPAIANQMAHQMHEDAQTEASKRGLAKLRADAKQGIYKKNRKPQELSNICNITLQHSNDSRNGNNGGACTGKDGNNERFKIGTEWKIGEKVETTDTDAYIPPRRQHMCTSNLENLNVSWVTEDGKAIHSLLGDVQLAAKMDADEIIKRYKKHNTLTDPIQQKDQESICRAVRYSFADLGDIIRGRDLWEHGDQTKLQGHLQIIFGKIKEEIKKKHPGINGNDKYKGDEKNNPPYKQLREDWWEANRHQVWRAMQCELKNLKKSNGDCHYNSRGTPLDDYIPQRLRWMVEWAEWFCKMQSQEYDKLMKQCSQCMSKGGDCRKGDVNCTSCEQACEEYKKKIKKWEKQWNKIKDKYEELYLQAKIAFAGTSFGGGDRDYAQMVHFFKELQKVTGDTTLGDTTSPYSTAAGYIHQEGHVDECTEQTQFCKNRNGNTASGKEDDNYTFKDPPPKYANACKCD [chain 1 Q389A], for which the response turned out to be 280 RU.

As for chain 1 PCVVGGQADTIYPAIANQMAHQMHEDAQTEASKRGLAKLRADAKQGIYKKNRKPQELSNICNITLQHSNDSRNGNNGGACTGKDGNNERFKIGTEWKIGEKVETTDTDAYIPPRRQHMCTSNLENLNVSWVTEDGKAIHSLLGDVQLAAKMDADEIIKRYKKHNTLTDPIQQKDQESICRAVRYSFADLGDIIRGRDLWEHGDQTKLQGHLQIIFGKIKEEIKKKHPGINGNDKYKGDEKNNPPYKQLREDWWEANRHQVWRAMQCELKNLKKSNGDCHYNSRGTPLDDYIPQRLRWMVEWAEWFCKMQSQEYDKLMKQCSQCMSKGGDCRKGDVNCTSCEQACEEYKKKIKKWEKQWNKIKDKYEELYLQAKIAFAGTSFAAGDRDYQQMVHFFKELQKVTGDTTLGDTTSPYSTAAGYIHQEGHVDECTEQTQFCKNRNGNTASGKEDDNYTFKDPPPKYANACKCD [chain 1 G382A G383A], the response stood at 280 RU.

As to chain 1 PCVVGGQADTIYPAIANQMAHQMHEDAQTEASKRGLAKLRADAKQGIYKKNRKPQELSNICNITLQHSNDSRNGNNGGACTGKDGNNERFKIGTEWKIGEKVETTDTDAYIPPRRQHMCTSNLENLNVSWVTEDGKAIHSLLGDVQLAAKMDADEIIKRYKKHNTLTDPIQQKDQESICRAVRYSFADLGDIIRGRDLWEHGDQTKLQGHLQIIFGKIKEEIKKKHPGINGNDKYKGDEKNNPPYKQLREDWWEANRHQVWRAMQCELKNLKKSNGDCHYNSRGTPLDDYIPQRLRWMVEWAEWFCKMQSQEYDKLMKQCSQCMSKGGDCRKGDVNCTSCEQACEEYKKKIKKWEKQWNKIKDKYEELYLQAKIAFAGTSFGGGDRDYQQMVHFFKELQKVTGDTTDGDTTSPYSTAAGYIHQEGHVDECTEQTQFCKNRNGNTASGKEDDNYTFKDPPPKYANACKCD [chain 1 L407D], the response worked out at 220 RU.

Turning to chain 1 PCVVGGQADTIYPAIANQMAHQMHEDAQTEASKRGLAKLRADAKQGIYKKNRKPQELSNICNITLQHSNDSRNGNNGGACTGKDGNNERFKIGTEWKIGEKVETTDTDAYIPPRRQHMCTSNLENLNVSWVTEDGKAIHSLLGDVQLAAKMDADEIIKRYKKHNTLTDPIQQKDQESICRAVRYSFADLGDIIRGRDLWEHGDQTKLQGHLQIIFGKIKEEIKKKHPGINGNDKYKGDEKNNPPYKQLREDWWEANRHQVWRAMQCELKNLKKSNGDCHYNSRGTPLDDYIPQRLRWMVEWAEWFCKMQSQEYDKLMKQCSQCMSKGGDCRKGDVNCTSCEQACEEYKKKIKKWEKQWNKIKDKYEELYLQAKIAFAGTSFAAADRDYQQMVHFFKELQKVTGDTTLGDTTSPYSTAAGYIHQEGHVDECTEQTQFCKNRNGNTASGKEDDNYTFKDPPPKYANACKCD [chain 1 G382A G383A G384A], the response was 260 RU.

For chain 1 PCVVGGQADTIYPAIANQMAHQMHEDAQTEASKRGLAKLRADAKQGIYKKNRKPQELSNICNITLQHSNDSRNGNNGGACTGKDGNNERFKIGTEWKIGEKVETTDTDAYIPPRRQHMCTSNLENLNVSWVTEDGKAIHSLLGDVQLAAKMDADEIIKRYKKHNTLTDPIQQKDQESICRAVRYSFADLGDIIRGRDLWEHGDQTKLQGHLQIIFGKIKEEIKKKHPGINGNDKYKGDEKNAPPYKQLREDWWEANRHQVWRAMQCELKNLKKSNGDCHYNSRGTPLDDYIPQRLRWMVEWAEWFCKMQSQEYDKLMKQCSQCMSKGGDCRKGDVNCTSCEQACEEYKKKIKKWEKQWNKIKDKYEELYLQAKIAFAGTSFGGGDRDYQQMVHFFKELQKVTGDTTLGDTTSPYSTAAGYIHQEGHVDECTEQTQFCKNRNGNTASGKEDDNYTFKDPPPKYANACKCD [chain 1 N242A], the response was found to be 270 RU.

As for chain 1 PCVVGGQADTIYPAIANQMAHQMHEDAQTEASKRGLAKLRADAKQGIYKKNRKPQELSNICNITLQHSNDSRNGNNGGACTGKDGNNERFKIGTEWKIGEKVETTDTDAYIPPRRQHMCTSNLENLNVSWVTEDGKAIHSLLGDVQLAAKMDADEIIKRYKKHNTLTDPIQQKDQESICRAVRYSFADLGDIIRGRDLWEHGDQTKLQGHLQIIFGKIKEEIKKKHPGINGNDKYKGDEKNNPPYKQLREDWWEANRHQVWRAMQCELKNLKKSNGDCHYNSRGTPLDDYIPQRLRWMVEWAEWFCKMQSQEYDKLMKQCSQCMSKGGDCRKGDVNCTSCEQACEEYKKKIKKWEKQWNKIKDKYAELYLQAKIAFAGTSFGGGDRDYQQMVHFFKELQKVTGDTTLGDTTSPYSTAAGYIHQEGHVDECTEQTQFCKNRNGNTASGKEDDNYTFKDPPPKYANACKCD [chain 1 E366A], the response amounted to 190 RU.

chain 1 PCVVGGQADTIYPAIANQMAHQMHEDAQTEASKRGLAKLRADAKQGIYKKNRKPQELSNICNITLQHSNDSRNGNNGGACTGKDGNNERFKIGTEWKIGEKVETTDTDAYIPPRRQHMCTSNLENLNVSWVTEDGKAIHSLLGDVQLAAKMDADEIIKRYKKHNTLTDPIQQKDQESICRAVRYSFADLGDIIRGRDLWEHGDQTKLQGHLQIIFGKIKEEIKKKHPGINGNDKYKGDEKNNPPYKQLREDWWEANRHQVWRAMQCELKNLKKSNGDCHYNSRGTPLDDYIPQRLRWMVEWAEWFCKMQSQEYDKLMKQCSQCMSKGGDCRKGDVNCTSCEQACEEYKKKIKKWEKQWNKIKDKYEELYDQAKIAFAGTSFGGGDRDYQQMVHFFKELQKVTGDTTLGDTTSPYSTAAGYIHQEGHVDECTEQTQFCKNRNGNTASGKEDDNYTFKDPPPKYANACKCD [chain 1 L370D]: the response was found to be 70 RU.
